Experimental data taken from patent US20190194356A1.
Values belong to the binder of their own block, whether it stands above or below them.

Molecular target: cynomolgus PCSK9 antigen (NCBI NM_001112660.1) (cynomolgus)
Test: BLI (Octet Red 96), antibody on anti-human IgG Fc (AHC) biosensor, PCSK9 in solution, 1:1 model

- Kd: < 0.001 nM
- koff: < 1e-07 s⁻¹
- kon: 298000 M⁻¹ s⁻¹
B1: monoclonal antibody 9M284 (antibody, human IgG2, lambda)
heavy: QVQLVQSGAEVKKPGSSVKVSCKASAFTFDSFGMHWVRQAPGQGLEWMGLLWSDGSGEYYADSAKGRFTISRDNSKNTLYLQMNSLRSDDTAVYYCARAMGAIYYYYAMDVWGQGTTVTVSSASTKGPSVFPLAPCSRSTSESTAALGCLVKDYFPEPVTVSWNSGALTSGVHTFPAVLQSSGLYSLSSVVTVPSSNFGTQTYTCNVDHKPSNTKVDKTVERKCCVECPPCPAPPVAGPSVFLFPPKPKDTLMISRTPEVTCVVVDVSHEDPEVQFNWYVDGVEVHNAKTKPREEQFNSTFRVVSVLTVVHQDWLNGKEYKCKVSNKGLPAPIEKTISKTKGQPREPQVYTLPPSREEMTKNQVSLTCLVKGFYPSDIAVEWESNGQPENNYKTTPPMLDSDGSFFLYSKLTVDKSRWQQGNVFSCSVMHEALHNHYTQKSLSLSPG
light: QSALTQPPSVSGSPGQSVTISCTGTSSNIGNQFVSWYQQLPGTAPKLMIYEYNKRPSGVPDRFSGSKSGNTASLTISGLQTGDEADYYCGSWDSSLSGYVFGTGTRVTVLGQPKAAPSVTLFPPSSEELQANKATLVCLISDFYPGAVTVAWKADSSPVKAGVETTTPSKQSNNKYAASSYLSLTPEQWKSHRSYSCQVTHEGSTVEKTVAPTECS

- Kd: 0.08 nM
- koff: 2.46e-05 s⁻¹
- kon: 308000 M⁻¹ s⁻¹
B2: monoclonal antibody 9M283 (antibody, human IgG2, lambda, V domains shown)
VH: QVQLVQSGAEVKKPGSSVKVSCKASAFTFDSFGMHWVRQAPGQGLEWMGLLWSDGSDEYYADSAKGRFTISRDNSKNTLYLQMNSLRSDDTAVYYCARALGAIYSYYAMDVWGQGTTVTVSS
VL: QSALTQPPSVSGSPGQSVTISCTGTSSNIGNQFVSWYQQLPGTAPKLMIYEYNKRPSGVPDRFSGSKSGNTASLTISGLQTGDEADYYCGSWDSSLSGYVFGTGTRVTVLG
